Measured values as given in article PMC3206906, “P50, the Small Subunit of DNA Polymerase Delta, Is Required for Mediation of the Interaction of Polymerase Delta Subassemblies with PCNA” (PLoS ONE, 2011).

Target: T1, digoxigenin (DIG)-labeled recombinant human PCNA (human, UniProt P12004 1-261, digoxigenin label (DIG Protein Labeling Kit); labeled residues not stated)
T1 construct: proliferating cell nuclear antigen (PCNA), human, recombinant wild type; Same protein as m1, chemically labeled with digoxigenin and used as the probe in the overlay; also called PCNA-DIG; DIG-labeled PCNA
Test: far-Western, overlay or dot blot; Increasing amounts of non-tagged p50 or purified pol δ4 run on 12% SDS-PAGE and transferred to nitrocellulose; probed with DIG-labeled PCNA in PBS for one hour (1:10,000 dilution of 0.15 mg/ml stock); detected with Anti-DIG-HRP and ECL; films for p50 slightly overexposed
Details: both partners purified

T1 sequence (P12004 whole entry): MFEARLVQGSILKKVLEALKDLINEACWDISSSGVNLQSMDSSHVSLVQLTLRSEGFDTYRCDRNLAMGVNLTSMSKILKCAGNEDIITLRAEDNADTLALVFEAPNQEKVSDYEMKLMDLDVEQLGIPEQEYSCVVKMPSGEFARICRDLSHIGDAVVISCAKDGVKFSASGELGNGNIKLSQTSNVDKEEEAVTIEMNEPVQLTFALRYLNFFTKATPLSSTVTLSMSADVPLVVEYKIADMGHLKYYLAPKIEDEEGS

binding result: binds
B1: p12 subunit of recombinant human DNA polymerase δ four-subunit complex (natural protein, UniProt Q9HCU8 1-107, looked up)
chain: MGRKRLITDSYPVVKRREGPAGHSKGELAPELGEEPQPRDEEEAELELLRQFDLAWQYGPCTGITRLQRWCRAKQMGLEPPPEVWQVLKTHPGDPRFQCSLWHLYPL
notes: also called pol δ4 subunit p12; source: Bombyx mori (silkworm) bioreactor, purified as the pol δ four-subunit complex, resolved by SDS-PAGE
